Changes are numbered by the printed parent chain.
B1: TB-H_F68V_F70L (scFv)
scFv: DIVMTQSPSSLSASVGDRVTLTCTASQSVSNDVVWYQQRPGKAPKLLIYSAFNRYTGVPSRFSGRGYGTDFTLTISSLQPEDVAVYYCQQDYNSPRTFGQGTKLEVKRGGGGSGGGGSGGGGSSGGGSQVQLVQSGAEVKKPGASVKVSCTASGYTFTHYGMNWVRQAPGKGLEWMGWINTYTGEPTYADKFKDRVTLSLETSASTVYMELTSLTSDDTAVYYCARERGDAMDYWGQGTLVTVSS
B2: TB-H_F70L (scFv)
scFv: B1 scFv with V196F

Target: TNFα (tumour necrosis factor alpha) (UniProt P01375 77-233, limits assumed)
Test: cell-based or functional assay

Chain of TNFα (tumour necrosis factor alpha) (P01375 77-233 limits assumed): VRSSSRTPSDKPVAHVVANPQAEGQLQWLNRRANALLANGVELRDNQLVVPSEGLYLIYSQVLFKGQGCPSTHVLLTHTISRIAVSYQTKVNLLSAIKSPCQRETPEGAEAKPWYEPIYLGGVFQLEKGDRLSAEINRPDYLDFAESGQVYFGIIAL

Binder | Relative potency: EC50X/EC50ESBA105, L929 cells
B1 | 1.28 ratio EC50X/EC50ESBA105
B2 | 2.7 ratio EC50X/EC50ESBA105

— patent US8936785 (ESBATECH AN ALCON BIOMEDICAL RESEARCH UNIT, dated 2015)
